Results published in patent US20110257890A1 (IMMATICS BIOTECHNOLOGIES, published 2011).

Biological target: T1, recombinant HLA-A*2402 molecules lacking the transmembrane domain (human, biotinylated at the carboxy terminus of the heavy chain)
T1 construct: Loaded with the peptide in question; used on streptavidin beads (aAPC) and as PE- or APC-coupled multimers
Assay: peptide-loaded recombinant HLA-A*2402 on beads for T-cell priming, read out with A*2402 multimers

| Binder | binding result |
| --- | --- |
| KYNDTFWKEF [HSP90B1-001] | binds |
| VYKVVGNLL [IQGAP3-001] | binds |
| LYQILQGIVF (also called TUMAP encoded by CDK1) [CDC2-001] | binds |
| VYGIRLEHF [NUF2-001] | binds |
| NYLPFIMEL [UCHL5-001] | binds |
| RFLSGIINF [NUF2-002] | binds |
| NYLLYVSNF [MST1R-001] | binds |
| IYNGKLFDLL [KIF2C-001] | binds |
| VFIFKGNQF [MMP3-001] | binds |
| QYASRFVQL [PLK4-001] | binds |
| AYAIIKEEL [ATAD2-001] | binds |
| VYTTSYQQI [NFYB-001] | binds |
| AYLVYTDRL [PPAP2C-001] | binds |
| HYKPTPLYF [SMC4-001] | binds |
| RYLWATVTI [ASPM-001] | binds |
| TYGNLLDYL [ABL1-001] | binds |
| SYIDVLPEF [MET-006] | binds |
| YYNAAGFNKL [UQCRB-001] | binds |
| FYISPVNKL [AVL9-001] | binds |
| VFDTAIAHLF [SIAH2-001] | binds |
| SYNPLWLRI [ASPM-002] | binds |
| VYIEKNDKL [ERBB3-001] | binds |
| NYEETFPHI [MUC6-001] | binds |
